For five molecules, fold repression results are on record in article PMC3817407.

B1: AS25_1645 (protein)
chain: MNESFSQRQTDGDRRRGGDLEMKKNHTSHQHHTDSETPMGHNFEQFQRLSAYFDGEATPAERKEIQHLLDTDPQVKQQYQQLRQLKQALQLLPIPTSISAQYLGQRVLARLRRSQLRTLSLWGSGAIAALFVAGVMGQMPRLNFDRFAKNDPDQQPTAALVETSPQGEEALVVALNRPVLQIPKLATTESP
B2: AS27_4265 (protein)
chain: MTGHPDVAEIADLAEGLLPTTRTTEVRQHLESCELCADVYASLTEIQGLLGTLPAPAPMPDDVAARIDAALAAEPPLGIADGTRVSRETSTPADRPAGHARPSSTGPGRKDRRRGGRRRIAVLGAVAAAAAIGIGSVVVSSLTEDSSSGNTAREQQTAIADTFSEGRLKDRVTNLVADGSAENGSRTPRSFGMESENGGETAENHVFKQPTVPECIRKGIGRDDAVIATEPGVYKGREALLVVLPDATNDTQVTAYIVETACVDQPAVGKAKILLEHSYARS
B3: AS31_34 (protein)
chain: MNKEKLSDHLKSEWKKIDQTANPSIPNQKELLHQLSQMKAEYRKKLLQEIILFVFCALMVVSAAILAFTQAPAVFIVLQVCVLAVLPILIAAEKKRHLGECEVKRG
B4: AS30_35 (protein)
chain: MDKRLQQLREEYKNVQIPKELDIIVEKALQQEPKKKRIVMWPTSAAIAAAILFTALVNINPDAAQAMSKIPVIGKIVKAITFIEIKEEKDQSSIDVKTPALSGLSNKELENSINEKYLKESQQLYKEFIQSTSKNKKGHLSIYSDYETVTDTPDLLSIRRNIETTQASSYTQSRYITIDKKNDILLTLKSLFKDERYIKVISQNIKEQMKQQMKEDPNKIYWLTDEDAEPFKTILPDQTFYITEDHKLVISFDEYEVAPGYMGVTEFTIPTGVISNLLVGERYIR
B5: AS27_1331 (protein)
chain: MSAADKDPDKHSADADPPLTVELLADLQAGLLDDATAARIRSRVRSDPQAQQILRALNRVRRDVAAMGADPAWGPAARPAVVDSISAALRSARPNSSPGAAHAARPHVHPVRMIAGAAGLCAVATAIGVGAVVDAPPPAPSAPTTAQHITVSKPAPVIPLSRPQVLDLLHHTPDYGPPGGPLGDPSRRTSCLSGLGYPASTPVLGAQPIDIDARPAVLLVIPADTPDKLAVFAVAPHCSAADTGLLASTVVPRA

The target in the first assay is T1, ECF03_1198.
T1 chain: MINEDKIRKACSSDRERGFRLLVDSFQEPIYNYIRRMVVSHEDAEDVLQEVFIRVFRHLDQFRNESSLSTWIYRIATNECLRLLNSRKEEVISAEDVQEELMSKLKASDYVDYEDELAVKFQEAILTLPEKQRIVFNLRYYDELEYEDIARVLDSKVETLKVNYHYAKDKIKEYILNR
B1 displayed a fold repression of 7.37.

B2 returned a fold repression of 2.19.

In turn, B3 yielded a fold repression of 2.96.

In the case of B4, the fold repression stood at 1.96.

For B5, the fold repression is 3.98.

The target in the next assay is T2, ECF03_1244.
T2 chain: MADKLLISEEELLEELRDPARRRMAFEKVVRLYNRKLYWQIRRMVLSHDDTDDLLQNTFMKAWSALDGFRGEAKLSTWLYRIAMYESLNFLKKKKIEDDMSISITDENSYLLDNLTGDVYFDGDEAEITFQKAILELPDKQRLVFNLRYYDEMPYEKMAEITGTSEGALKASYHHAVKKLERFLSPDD
In turn, B1 gave a fold repression of 4.7.

B2 gave a fold repression of 1.38.

With B3, the fold repression was 2.34.

B4 came in with a fold repression of 1.74.

B5: the fold repression was 4.29.

The target in another assay is T3, ECF11_3726.
T3 chain: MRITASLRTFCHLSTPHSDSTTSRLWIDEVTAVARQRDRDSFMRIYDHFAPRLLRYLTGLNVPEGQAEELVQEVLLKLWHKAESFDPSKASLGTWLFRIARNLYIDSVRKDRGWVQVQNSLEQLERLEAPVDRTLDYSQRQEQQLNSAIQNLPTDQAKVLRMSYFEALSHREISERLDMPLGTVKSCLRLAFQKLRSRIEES
Molecule B1 showed a fold repression of 13.1.

Consider B2, for which the fold repression turned out to be 7.03.

The molecule B3 returned a fold repression of 5.86.

Turning to B4, the fold repression was determined as 2.09.

In turn, B5 had a fold repression of 5.02.

A further assay concerns the target T4, ECF14_3200.
T4 chain: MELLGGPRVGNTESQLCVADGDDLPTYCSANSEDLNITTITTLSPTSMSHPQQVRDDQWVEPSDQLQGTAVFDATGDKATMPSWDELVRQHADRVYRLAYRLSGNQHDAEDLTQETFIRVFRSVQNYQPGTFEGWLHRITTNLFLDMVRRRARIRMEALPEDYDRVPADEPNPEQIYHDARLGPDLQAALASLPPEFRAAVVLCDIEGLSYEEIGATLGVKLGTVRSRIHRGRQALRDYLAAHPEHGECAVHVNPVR
Molecule B1 displayed a fold repression of 14.2.

In the case of B2, the fold repression was 4.49.

For B3, the fold repression is 2.7.

As to B4, the fold repression turned out to be 1.91.

Turning to B5, the fold repression was 2.68.

The target in the next assay is T5, ECF16_3622.
T5 chain: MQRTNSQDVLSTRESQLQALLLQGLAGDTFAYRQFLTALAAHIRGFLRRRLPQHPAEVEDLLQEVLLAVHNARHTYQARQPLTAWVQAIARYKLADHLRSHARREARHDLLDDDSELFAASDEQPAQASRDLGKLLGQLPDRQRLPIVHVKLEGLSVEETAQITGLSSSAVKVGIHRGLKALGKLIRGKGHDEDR
Molecule B1 showed a fold repression of 6.9.

B2 showed a fold repression of 5.58.

The molecule B3 displayed a fold repression of 3.01.

On to B4, for which the fold repression is 1.39.

Take B5: the fold repression came out at 6.93.

The target of another assay is T6, ECF16_973.
T6 chain: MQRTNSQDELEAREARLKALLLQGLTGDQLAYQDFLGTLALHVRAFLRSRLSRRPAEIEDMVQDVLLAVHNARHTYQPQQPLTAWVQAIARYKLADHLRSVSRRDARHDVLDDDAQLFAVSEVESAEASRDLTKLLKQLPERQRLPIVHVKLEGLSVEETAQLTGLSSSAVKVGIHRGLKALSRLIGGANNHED
B1 yielded a fold repression of 5.41.

Take B2: the fold repression was 1.77.

In the case of B3, the fold repression is 1.84.

Molecule B4 showed a fold repression of 1.73.

The molecule B5 showed a fold repression of 5.57.

The target in a further assay is T7, ECF27_4265.
T7 chain: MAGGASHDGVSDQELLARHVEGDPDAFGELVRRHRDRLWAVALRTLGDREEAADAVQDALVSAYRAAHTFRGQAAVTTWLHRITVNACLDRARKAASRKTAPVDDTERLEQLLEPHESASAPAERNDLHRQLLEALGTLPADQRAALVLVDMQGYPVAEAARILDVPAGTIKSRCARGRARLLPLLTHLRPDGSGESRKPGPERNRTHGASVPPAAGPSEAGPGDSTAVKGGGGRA
As to B1, the fold repression amounted to 24.5.

B2: the fold repression is 152.

B3: the fold repression worked out at 1.48.

The molecule B4 registered a fold repression of 1.44.

On to B5, for which the fold repression is 5.34.

For another assay, the target named is T8, ECF28_1040.
T8 chain: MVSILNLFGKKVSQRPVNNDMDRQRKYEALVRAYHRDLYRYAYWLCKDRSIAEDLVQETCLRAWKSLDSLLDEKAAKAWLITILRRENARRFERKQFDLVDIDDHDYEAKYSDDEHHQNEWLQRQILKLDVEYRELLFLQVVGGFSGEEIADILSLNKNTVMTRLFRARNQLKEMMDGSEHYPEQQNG
B1 displayed a fold repression of 2.95.

Regarding B2, the fold repression stood at 2.19.

B3 displayed a fold repression of 2.22.

Consider B4, for which the fold repression is 1.32.

The molecule B5 had a fold repression of 1.5.

The target of the next assay is T9, ECF28_1088.
T9 chain: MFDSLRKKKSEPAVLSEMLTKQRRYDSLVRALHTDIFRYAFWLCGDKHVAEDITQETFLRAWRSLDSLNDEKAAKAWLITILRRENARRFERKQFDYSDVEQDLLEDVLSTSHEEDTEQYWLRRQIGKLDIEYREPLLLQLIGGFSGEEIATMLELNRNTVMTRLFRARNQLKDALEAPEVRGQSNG
In turn, B1 gave a fold repression of 3.89.

B2 returned a fold repression of 2.14.

B3 displayed a fold repression of 1.59.

B4 registered a fold repression of 1.68.

B5 returned a fold repression of 1.37.

The target in another assay is T10, ECF30_35.
T10 chain: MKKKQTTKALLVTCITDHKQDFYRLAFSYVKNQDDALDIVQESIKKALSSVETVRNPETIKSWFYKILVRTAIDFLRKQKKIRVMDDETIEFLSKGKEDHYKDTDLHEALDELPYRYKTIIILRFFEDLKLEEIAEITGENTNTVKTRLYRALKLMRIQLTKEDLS
B1 came in with a fold repression of 3.43.

Take B2: the fold repression came out at 5.45.

B3 returned a fold repression of 1.68.

B4: the fold repression was 55.4.

B5: the fold repression was 3.98.

A further assay concerns the target T11, ECF33_423.
T11 chain: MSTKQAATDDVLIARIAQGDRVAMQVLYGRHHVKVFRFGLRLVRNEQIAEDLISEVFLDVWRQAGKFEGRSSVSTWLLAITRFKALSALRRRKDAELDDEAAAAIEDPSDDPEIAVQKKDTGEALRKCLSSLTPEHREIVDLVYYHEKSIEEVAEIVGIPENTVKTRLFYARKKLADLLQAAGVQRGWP
Molecule B1 displayed a fold repression of 4.92.

For B2, the fold repression amounted to 1.63.

In the case of B3, the fold repression was determined as 2.25.

For the molecule B4, the fold repression was 1.99.

As to B5, the fold repression was 5.1.

For the next assay, the target named is T12, ECF34_1384.
T12 chain: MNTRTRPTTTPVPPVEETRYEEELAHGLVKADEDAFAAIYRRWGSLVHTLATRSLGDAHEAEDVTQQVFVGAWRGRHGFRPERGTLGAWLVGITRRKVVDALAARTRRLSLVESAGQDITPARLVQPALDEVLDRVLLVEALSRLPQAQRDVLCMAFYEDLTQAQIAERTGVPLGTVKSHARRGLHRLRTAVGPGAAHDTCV
On to B1, for which the fold repression was determined as 7.62.

The molecule B2 gave a fold repression of 5.28.

The molecule B3 returned a fold repression of 2.98.

With B4, the fold repression was determined as 2.04.

Regarding B5, the fold repression was found to be 2.35.

For another assay, the target named is T13, ECF37_2513.
T13 chain: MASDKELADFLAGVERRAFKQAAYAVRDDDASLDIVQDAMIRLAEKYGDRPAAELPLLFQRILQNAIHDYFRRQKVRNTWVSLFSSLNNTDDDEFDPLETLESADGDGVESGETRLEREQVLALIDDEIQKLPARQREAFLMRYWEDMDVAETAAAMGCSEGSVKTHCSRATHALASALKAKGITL
Molecule B1 showed a fold repression of 7.52.

For B2, the fold repression was 2.03.

Turning to B3, the fold repression turned out to be 3.38.

For B4, the fold repression amounted to 2.3.

The molecule B5 showed a fold repression of 2.75.

In another assay the target is T14, ECF38_1322.
T14 chain: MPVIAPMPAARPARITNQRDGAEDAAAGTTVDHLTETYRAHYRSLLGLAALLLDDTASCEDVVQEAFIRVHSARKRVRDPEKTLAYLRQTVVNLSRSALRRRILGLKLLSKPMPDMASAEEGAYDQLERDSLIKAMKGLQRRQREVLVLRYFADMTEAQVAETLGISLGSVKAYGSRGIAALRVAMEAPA
Consider B1, for which the fold repression was 3.98.

On to B2, for which the fold repression stood at 1.36.

Turning to B3, the fold repression worked out at 2.06.

The molecule B4 came in with a fold repression of 1.84.

The molecule B5 registered a fold repression of 3.98.
